According to article PMC10308326:

Key:
[1] = system: TALE tetM_1298 (14 bp recognition) (engineered TALE (AvrBs3 scaffold in pMAL-c2X, repeats replaced; Xanthomonas?)); assay: EMSA; settings: EMSA: 12 mM Tris, 60 mM KCl, 2 mM DTT, 0.1 mg/mL BSA, 30% glycerol, 5 mM MgCl2, 0.2 mM EDTA, RT 1 h then 4 °C 30 min, TALE 0.03-200 nM; GO assay: TALE storage …
[2] = system: TALE tetM_611 (16 bp recognition) (engineered TALE (AvrBs3 scaffold in pMAL-c2X, repeats replaced; Xanthomonas?)); assay: EMSA; settings: EMSA: 12 mM Tris, 60 mM KCl, 2 mM DTT, 0.1 mg/mL BSA, 30% glycerol, 5 mM MgCl2, 0.2 mM EDTA, RT 1 h then 4 °C 30 min, TALE 0.03-200 nM; GO assay: TALE storage …

Sequence	Kd [1] [nM]	Kd [2] [nM]
GCGCCTTTCTGGGCTTCGCG / TTTTTTTTTTTTTTTCGCGAAGCCCAGAAAGGCGC [tetM_1298 EMSA oligo]	1.2	
GCGTGTTCTCTGTTCCCTCGCG / TTTTTTTTTTTTTTTCGCGAGGGAACAGAGAACACGC [tetM_611 EMSA oligo]		4.6
